{"source": "patent US20240280570A1", "key": {"[1]": {"biological_target": "SARS-CoV-2 RBD (Sino Biological 40592-V08H); Spike Receptor Binding Domain residues R319 - F541 His tagged (SARS-CoV-2) (UniProt P0DTC2)"}, "[2]": {"biological_target": "SARS-CoV-2 RBD (Sino Biological 40592-V08H); Spike Receptor Binding Domain residues R319 - F541 His tagged (SARS-CoV-2) (UniProt P0DTC2)", "remark": "listed apart in the source"}, "[3]": {"biological_target": "SARS-CoV-2 RBD (Sino Biological 40592-V08H); Spike Receptor Binding Domain residues R319 - F541 His tagged (SARS-CoV-2) (UniProt P0DTC2)", "test": "OECT sensor, PEDOT:PSS channel, nanobody on gate, target in buffer"}}, "note": "Like-named read-outs stand apart in the source and are kept apart here."}
{"substance": "VHH72-8 aa-spyCatcher-3C cleavage site-His8", "values": [{"measurement": "LOD", "setting": "[1]", "result": 0.048, "unit": "pM"}, {"measurement": "LOD", "setting": "[2]", "result": 0.023, "unit": "pM"}, {"measurement": "LOD", "setting": "[3]", "result": 0.024, "unit": "pM"}]}
